Article PMC10810197, “A KDPG sensor RccR governs Pseudomonas aeruginosa carbon metabolism and aminoglycoside antibiotic tolerance” (Nucleic Acids Research, 2023)
Where a chain is given by its changes, count along the chain named.

Legend:
[1] = molecular target: T1, RccR H148A H148A (Pseudomonas aeruginosa PAO1) (UniProt Q9HTC8); experiment: EMSA; conditions: EMSA: 10 nM FAM-DNA, 20 mM Tris-HCl pH 8.5, 150 mM KCl, 5 mM MgCl2, 1 mM EDTA, 1 mM DTT, 0.8% Tween 20, 2.5% glycerol, on ice 30 min; 6% native PAGE, 0.5x TBE
T1 sequence: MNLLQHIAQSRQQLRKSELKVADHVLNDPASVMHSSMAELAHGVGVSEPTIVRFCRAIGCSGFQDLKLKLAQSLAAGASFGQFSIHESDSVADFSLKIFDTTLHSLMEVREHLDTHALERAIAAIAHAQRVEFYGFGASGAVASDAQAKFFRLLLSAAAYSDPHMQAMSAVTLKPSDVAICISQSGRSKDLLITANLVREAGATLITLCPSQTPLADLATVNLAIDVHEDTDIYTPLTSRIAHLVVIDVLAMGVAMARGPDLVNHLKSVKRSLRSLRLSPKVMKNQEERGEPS

[2] = molecular target: T2, RccR H164A H164A (Pseudomonas aeruginosa PAO1) (UniProt Q9HTC8); experiment: EMSA; conditions: EMSA: 10 nM FAM-DNA, 20 mM Tris-HCl pH 8.5, 150 mM KCl, 5 mM MgCl2, 1 mM EDTA, 1 mM DTT, 0.8% Tween 20, 2.5% glycerol, on ice 30 min; 6% native PAGE, 0.5x TBE
T2 sequence: T1 sequence with A148H, H164A

[3] = molecular target: T3, RccR S139A S139A (Pseudomonas aeruginosa PAO1) (UniProt Q9HTC8); experiment: EMSA; conditions: EMSA: 10 nM FAM-DNA, 20 mM Tris-HCl pH 8.5, 150 mM KCl, 5 mM MgCl2, 1 mM EDTA, 1 mM DTT, 0.8% Tween 20, 2.5% glycerol, on ice 30 min; 6% native PAGE, 0.5x TBE
T3 sequence: T1 sequence with S139A, A148H

[4] = molecular target: T4, RccR WT (Pseudomonas aeruginosa PAO1) (UniProt Q9HTC8); experiment: EMSA; conditions: EMSA: 10 nM FAM-DNA, 20 mM Tris-HCl pH 8.5, 150 mM KCl, 5 mM MgCl2, 1 mM EDTA, 1 mM DTT, 0.8% Tween 20, 2.5% glycerol, on ice 30 min; 6% native PAGE, 0.5x TBE
T4 sequence: T1 sequence with A148H

[5] = molecular target: RccR (PA5438), RpiR family transcription factor of Pseudomonas aeruginosa PAO1 (Pseudomonas aeruginosa PAO1); experiment: crystal structure

Substance | binding [1] | binding [2] | binding [3] | binding [4] | stoichiometry N [5]
GGCTTGCTCCAGGGCGGAAAGGCTTCCAGAATCGGATGCCATAGGTGAGCGGCCGGCCTCGTGGGCGACCGCAGCTAATTCTTGGATGTTCTCCGGGGGTGTACCCGGCGACTTGTAGTTTTACTACAGATCAGTCTGAGAAACAGCCCTCTGGATACAATTTTTAGTAGTAAAACTACATTTCGATTGTCGCTGTCAGGCTATAAGGCCCGATGT (double strand) [aceE promoter] | no binding | no binding | no binding | binds | 
RccR (PA5438), RpiR family transcription factor of Pseudomonas aeruginosa PAO1 (natural protein) |  |  |  |  | 4
TGTTTGCCTCACTCTGCTCTAGACCAGCTCTGGACCCGGGCCGCACGGCCTTGTAGTCCGAGCCGCGGCATACTACATGATGCCGCGGGAAAAATCAGTGGTTACGCGTCGCGTTACGACTGGATGACGCTTCACGGTCACGTTGGCCAGGCTCAATGTTCGCAAAAAAACTGTACTTTGTTCCAGATAAATCTAAAAACAGTACACGATTTATCACGAGCCCA (double strand) [glcB promoter] |  |  |  | binds | 
